Publication PMC7488360 (Acta Pharmaceutica Sinica. B, 2020)

Legend:
[1] = molecular target: HuR (human antigen R) (Homo sapiens, UniProt Q15717); experiment: SPR; type: binding
[2] = molecular target: HuR RRM12 (UniProt Q15717 18-186); experiment: EMSA
[3] = molecular target: HuR full-length (UniProt Q15717 1-326); experiment: EMSA
Sequence of HuR full-length (Q15717 whole entry): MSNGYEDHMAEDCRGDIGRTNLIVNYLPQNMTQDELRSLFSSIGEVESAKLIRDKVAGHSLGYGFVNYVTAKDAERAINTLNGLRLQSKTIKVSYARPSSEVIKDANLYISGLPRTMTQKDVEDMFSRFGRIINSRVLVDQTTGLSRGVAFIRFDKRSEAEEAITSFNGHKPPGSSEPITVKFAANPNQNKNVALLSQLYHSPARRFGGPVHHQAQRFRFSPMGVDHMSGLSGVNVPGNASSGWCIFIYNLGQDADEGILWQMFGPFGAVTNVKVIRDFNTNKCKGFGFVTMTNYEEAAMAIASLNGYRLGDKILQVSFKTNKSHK

Sequence of HuR RRM12 (Q15717 18-186): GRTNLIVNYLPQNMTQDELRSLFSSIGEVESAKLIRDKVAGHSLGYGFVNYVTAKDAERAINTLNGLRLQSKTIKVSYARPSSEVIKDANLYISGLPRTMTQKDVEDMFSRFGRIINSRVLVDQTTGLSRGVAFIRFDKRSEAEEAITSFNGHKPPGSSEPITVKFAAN
Sequence of HuR (human antigen R) (Q15717 18-186): as above

## CC1=NN(c2ccc(C)c(C)c2)C(=O)/C1=N\Nc1cccc(-c2cccc(C(=O)O)c2)c1O [eltrombopag]
[1]
  Kd: 2500 nM

## AAUUCUACAUACUAAAUCUCUCUCCUUUUUUAAUUUUAAUAUUUG (ssRNA) [AREVegf-a]
[2]
  binding result: binds
[3]
  binding result: binds
